Reference: the supplement of paper PMC10065799, “High-throughput profiling of sequence recognition by tyrosine kinases and SH2 domains using bacterial peptide display” (eLife, 2023)

system: c-Src; assay: phosphorylation enrichment, bacterial display (enrichment ratio); higher = better substrate or ligand; peptides without Tyr show the background
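For SH2 binding enrichment of the phosphorylated peptide, bacterial display in this document: peptide library displayed on the E. coli surface as eCPX fusions, selected cells deep-sequenced, score is each peptide's frequency after selection divided by its frequency in the input.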
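For phosphorylation enrichment, bacterial display in this document: 11-residue human phosphosite peptides and single-mutation variants displayed on the E. coli surface, counted by deep sequencing, each peptide's frequency after selection divided by its frequency in the unselected input library; frequency after pTyr selection over input frequency; kinase dosed for 20-30% of maximal phosphorylation in three min.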

Sequence	phosphorylation enrichment
VYPATYHPDHW [EFCAB12_Y544]	0.436
CNPLRYPVLMS [OR2T1_Y182]	0.498
ELTAKYLNFFR [P3H4_Y181_Q186R_YF]	0.366
DSIRDYEDGTE [CLNS1A_Y214_M218T]	1.1
CERFSYYGMKA [SLC15A2_Y60]	1.1
MGCVNYGAYIN [GLB1_Y485_R482C]	1.08
FPPDGYSRHCE [CTNND1_Y213_Y217C_YF]	0.376
AIIEEYLHLSD [EIF4G1_Y1253_N1257S]	0.458
EQSNPYMVLDI [ROCK2_Y1197]	3.73
QCQLKYSETPF [SIX6OS1_Y129_Y125C]	0.717
RTLIRYANLSN [BEST1_Y131_G135S]	0.65
NPQKSCFIRLY [WAS_Y83_Y83C]	0.403
LERYIYNREEL [HLA-DPB1_Y59_F64L]	1.93
RIDPDYMGRVR [IGSF9_Y81_V82M]	0.466
SRIWVYNHYRC [BRCA2_Y2621_W2626C]	0.392
FSVDGYDSSVR [KCNQ1_Y461]	0.37

target: FGFR3 (UniProt P22607); assay: as above
Sequence (P22607 whole entry, looked up): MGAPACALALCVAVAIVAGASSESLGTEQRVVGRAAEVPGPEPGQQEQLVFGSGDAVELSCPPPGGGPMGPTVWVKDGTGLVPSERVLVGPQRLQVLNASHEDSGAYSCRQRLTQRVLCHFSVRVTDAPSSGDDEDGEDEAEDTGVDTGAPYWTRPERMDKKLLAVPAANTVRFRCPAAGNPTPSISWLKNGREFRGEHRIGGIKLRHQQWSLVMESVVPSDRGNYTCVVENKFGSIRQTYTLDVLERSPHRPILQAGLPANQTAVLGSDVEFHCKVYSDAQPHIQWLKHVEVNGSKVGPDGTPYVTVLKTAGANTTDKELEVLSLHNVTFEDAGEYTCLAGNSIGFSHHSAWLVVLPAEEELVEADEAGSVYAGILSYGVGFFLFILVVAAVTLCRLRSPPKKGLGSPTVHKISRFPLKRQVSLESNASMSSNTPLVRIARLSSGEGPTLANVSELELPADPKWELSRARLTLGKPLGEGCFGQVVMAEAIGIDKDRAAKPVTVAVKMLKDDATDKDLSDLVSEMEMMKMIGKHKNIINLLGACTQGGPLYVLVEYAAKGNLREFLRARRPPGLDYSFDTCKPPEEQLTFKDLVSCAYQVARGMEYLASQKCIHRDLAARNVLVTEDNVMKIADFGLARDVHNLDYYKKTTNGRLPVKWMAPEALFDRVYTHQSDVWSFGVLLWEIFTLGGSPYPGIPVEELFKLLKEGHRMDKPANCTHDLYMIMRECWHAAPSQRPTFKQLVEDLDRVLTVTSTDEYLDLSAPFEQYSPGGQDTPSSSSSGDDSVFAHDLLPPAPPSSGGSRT

Sequence	phosphorylation enrichment
VYPATYHPDHW [EFCAB12_Y544]	0.828
CNPLRYPVLMS [OR2T1_Y182]	0.621
ELTAKYLNFFR [P3H4_Y181_Q186R_YF]	0.513
DSIRDYEDGTE [CLNS1A_Y214_M218T]	0.988
CERFSYYGMKA [SLC15A2_Y60]	2.88
MGCVNYGAYIN [GLB1_Y485_R482C]	0.851
FPPDGYSRHCE [CTNND1_Y213_Y217C_YF]	0.661
AIIEEYLHLSD [EIF4G1_Y1253_N1257S]	0.838
EQSNPYMVLDI [ROCK2_Y1197]	1.1
QCQLKYSETPF [SIX6OS1_Y129_Y125C]	0.842
RTLIRYANLSN [BEST1_Y131_G135S]	0.757
NPQKSCFIRLY [WAS_Y83_Y83C]	0.769
LERYIYNREEL [HLA-DPB1_Y59_F64L]	0.58
RIDPDYMGRVR [IGSF9_Y81_V82M]	0.656
SRIWVYNHYRC [BRCA2_Y2621_W2626C]	0.726
FSVDGYDSSVR [KCNQ1_Y461]	0.53

target: EPHB1 (UniProt P54762); assay: as above
Sequence (P54762 whole entry, looked up): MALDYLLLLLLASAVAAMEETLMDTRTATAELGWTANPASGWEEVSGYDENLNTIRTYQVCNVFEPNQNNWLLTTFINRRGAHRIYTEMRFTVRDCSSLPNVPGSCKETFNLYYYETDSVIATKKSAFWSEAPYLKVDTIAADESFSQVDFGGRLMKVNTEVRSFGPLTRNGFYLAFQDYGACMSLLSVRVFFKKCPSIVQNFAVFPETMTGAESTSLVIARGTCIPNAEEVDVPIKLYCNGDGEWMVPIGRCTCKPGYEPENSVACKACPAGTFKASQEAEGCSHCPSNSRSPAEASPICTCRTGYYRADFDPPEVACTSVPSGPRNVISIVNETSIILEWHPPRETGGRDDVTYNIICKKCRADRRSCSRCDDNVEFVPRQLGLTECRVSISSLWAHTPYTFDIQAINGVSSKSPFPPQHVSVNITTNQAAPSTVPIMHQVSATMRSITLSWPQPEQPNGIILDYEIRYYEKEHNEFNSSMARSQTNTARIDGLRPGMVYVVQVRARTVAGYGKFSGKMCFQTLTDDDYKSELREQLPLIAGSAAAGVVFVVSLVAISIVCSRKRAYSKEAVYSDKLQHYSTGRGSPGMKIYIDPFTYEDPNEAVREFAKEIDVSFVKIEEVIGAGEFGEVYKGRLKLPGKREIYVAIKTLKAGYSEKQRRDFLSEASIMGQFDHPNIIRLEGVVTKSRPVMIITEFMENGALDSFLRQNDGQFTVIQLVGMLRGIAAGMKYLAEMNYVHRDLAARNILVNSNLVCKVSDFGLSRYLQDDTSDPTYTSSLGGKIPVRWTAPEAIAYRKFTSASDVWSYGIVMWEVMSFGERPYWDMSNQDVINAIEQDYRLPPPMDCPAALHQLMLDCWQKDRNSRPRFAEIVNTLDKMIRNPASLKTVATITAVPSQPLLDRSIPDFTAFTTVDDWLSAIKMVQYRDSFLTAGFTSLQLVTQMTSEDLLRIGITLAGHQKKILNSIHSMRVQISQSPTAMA

Sequence	phosphorylation enrichment
VYPATYHPDHW [EFCAB12_Y544]	0.423
CNPLRYPVLMS [OR2T1_Y182]	0.549
ELTAKYLNFFR [P3H4_Y181_Q186R_YF]	0.414
DSIRDYEDGTE [CLNS1A_Y214_M218T]	0.784
CERFSYYGMKA [SLC15A2_Y60]	0.843
MGCVNYGAYIN [GLB1_Y485_R482C]	0.793
FPPDGYSRHCE [CTNND1_Y213_Y217C_YF]	0.565
AIIEEYLHLSD [EIF4G1_Y1253_N1257S]	0.714
EQSNPYMVLDI [ROCK2_Y1197]	0.577
QCQLKYSETPF [SIX6OS1_Y129_Y125C]	0.634
RTLIRYANLSN [BEST1_Y131_G135S]	0.733
NPQKSCFIRLY [WAS_Y83_Y83C]	0.597
LERYIYNREEL [HLA-DPB1_Y59_F64L]	0.653
RIDPDYMGRVR [IGSF9_Y81_V82M]	0.35
SRIWVYNHYRC [BRCA2_Y2621_W2626C]	0.555
FSVDGYDSSVR [KCNQ1_Y461]	0.519

system: c-Abl (mouse); assay: as above

Sequence	phosphorylation enrichment
VYPATYHPDHW [EFCAB12_Y544]	0.526
CNPLRYPVLMS [OR2T1_Y182]	0.896
ELTAKYLNFFR [P3H4_Y181_Q186R_YF]	0.574
DSIRDYEDGTE [CLNS1A_Y214_M218T]	1.02
CERFSYYGMKA [SLC15A2_Y60]	0.737
MGCVNYGAYIN [GLB1_Y485_R482C]	1.39
FPPDGYSRHCE [CTNND1_Y213_Y217C_YF]	0.584
AIIEEYLHLSD [EIF4G1_Y1253_N1257S]	0.885
EQSNPYMVLDI [ROCK2_Y1197]	0.737
QCQLKYSETPF [SIX6OS1_Y129_Y125C]	0.933
RTLIRYANLSN [BEST1_Y131_G135S]	0.654
NPQKSCFIRLY [WAS_Y83_Y83C]	0.783
LERYIYNREEL [HLA-DPB1_Y59_F64L]	0.777
RIDPDYMGRVR [IGSF9_Y81_V82M]	0.585
SRIWVYNHYRC [BRCA2_Y2621_W2626C]	0.65
FSVDGYDSSVR [KCNQ1_Y461]	0.648

target: Hck (UniProt P08631); assay: as above
Sequence (P08631 whole entry, looked up): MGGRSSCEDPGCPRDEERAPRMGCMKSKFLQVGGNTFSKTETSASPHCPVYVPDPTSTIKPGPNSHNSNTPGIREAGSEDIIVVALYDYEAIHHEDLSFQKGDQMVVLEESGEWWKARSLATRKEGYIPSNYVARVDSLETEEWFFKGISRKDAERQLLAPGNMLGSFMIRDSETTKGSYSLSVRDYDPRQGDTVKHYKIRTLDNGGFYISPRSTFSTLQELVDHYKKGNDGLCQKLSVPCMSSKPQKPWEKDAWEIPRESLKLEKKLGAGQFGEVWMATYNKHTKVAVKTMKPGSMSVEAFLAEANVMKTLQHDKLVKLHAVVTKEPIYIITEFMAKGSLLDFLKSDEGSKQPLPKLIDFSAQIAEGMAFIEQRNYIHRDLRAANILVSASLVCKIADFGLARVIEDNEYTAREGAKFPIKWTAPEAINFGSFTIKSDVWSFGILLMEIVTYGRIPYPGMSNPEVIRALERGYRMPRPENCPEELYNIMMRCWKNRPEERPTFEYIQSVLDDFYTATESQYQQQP

Sequence	phosphorylation enrichment
VYPATYHPDHW [EFCAB12_Y544]	0.689
CNPLRYPVLMS [OR2T1_Y182]	0.518
ELTAKYLNFFR [P3H4_Y181_Q186R_YF]	0.456
DSIRDYEDGTE [CLNS1A_Y214_M218T]	0.57
CERFSYYGMKA [SLC15A2_Y60]	1.16
MGCVNYGAYIN [GLB1_Y485_R482C]	0.572
FPPDGYSRHCE [CTNND1_Y213_Y217C_YF]	0.473
AIIEEYLHLSD [EIF4G1_Y1253_N1257S]	0.655
EQSNPYMVLDI [ROCK2_Y1197]	1.38
QCQLKYSETPF [SIX6OS1_Y129_Y125C]	0.749
RTLIRYANLSN [BEST1_Y131_G135S]	0.675
NPQKSCFIRLY [WAS_Y83_Y83C]	0.494
LERYIYNREEL [HLA-DPB1_Y59_F64L]	1.55
RIDPDYMGRVR [IGSF9_Y81_V82M]	0.369
SRIWVYNHYRC [BRCA2_Y2621_W2626C]	0.459
FSVDGYDSSVR [KCNQ1_Y461]	0.393

target: SHP2-C SH2; assay: SH2 binding enrichment of the phosphorylated peptide, bacterial display (enrichment ratio); higher = better substrate or ligand; peptides without Tyr show the background

Sequence	SH2 binding enrichment
VYPATYHPDHW [EFCAB12_Y544]	0.635
CNPLRYPVLMS [OR2T1_Y182]	0.875
ELTAKYLNFFR [P3H4_Y181_Q186R_YF]	1.14
DSIRDYEDGTE [CLNS1A_Y214_M218T]	0.67
CERFSYYGMKA [SLC15A2_Y60]	0.799
MGCVNYGAYIN [GLB1_Y485_R482C]	0.606
FPPDGYSRHCE [CTNND1_Y213_Y217C_YF]	0.706
AIIEEYLHLSD [EIF4G1_Y1253_N1257S]	0.752
EQSNPYMVLDI [ROCK2_Y1197]	0.654
QCQLKYSETPF [SIX6OS1_Y129_Y125C]	0.61
RTLIRYANLSN [BEST1_Y131_G135S]	8.49
NPQKSCFIRLY [WAS_Y83_Y83C]	0.654
LERYIYNREEL [HLA-DPB1_Y59_F64L]	0.709
RIDPDYMGRVR [IGSF9_Y81_V82M]	0.629
SRIWVYNHYRC [BRCA2_Y2621_W2626C]	0.864
FSVDGYDSSVR [KCNQ1_Y461]	0.727

target: c-Src SH2; assay: as above

Sequence	SH2 binding enrichment
VYPATYHPDHW [EFCAB12_Y544]	0.53
CNPLRYPVLMS [OR2T1_Y182]	0.742
ELTAKYLNFFR [P3H4_Y181_Q186R_YF]	0.832
DSIRDYEDGTE [CLNS1A_Y214_M218T]	0.577
CERFSYYGMKA [SLC15A2_Y60]	1.08
MGCVNYGAYIN [GLB1_Y485_R482C]	0.569
FPPDGYSRHCE [CTNND1_Y213_Y217C_YF]	0.617
AIIEEYLHLSD [EIF4G1_Y1253_N1257S]	0.561
EQSNPYMVLDI [ROCK2_Y1197]	0.72
QCQLKYSETPF [SIX6OS1_Y129_Y125C]	0.644
RTLIRYANLSN [BEST1_Y131_G135S]	1.59
NPQKSCFIRLY [WAS_Y83_Y83C]	0.533
LERYIYNREEL [HLA-DPB1_Y59_F64L]	0.852
RIDPDYMGRVR [IGSF9_Y81_V82M]	0.577
SRIWVYNHYRC [BRCA2_Y2621_W2626C]	0.695
FSVDGYDSSVR [KCNQ1_Y461]	0.688

target: Grb2 SH2 (UniProt P62993); assay: as above
Sequence (P62993 whole entry, looked up): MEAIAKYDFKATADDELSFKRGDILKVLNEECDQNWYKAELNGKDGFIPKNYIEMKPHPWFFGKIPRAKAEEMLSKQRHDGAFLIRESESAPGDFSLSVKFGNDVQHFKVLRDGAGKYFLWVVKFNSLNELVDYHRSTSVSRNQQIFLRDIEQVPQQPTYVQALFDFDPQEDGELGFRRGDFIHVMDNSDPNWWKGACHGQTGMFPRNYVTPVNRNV

Sequence	SH2 binding enrichment
VYPATYHPDHW [EFCAB12_Y544]	1.03
CNPLRYPVLMS [OR2T1_Y182]	0.975
ELTAKYLNFFR [P3H4_Y181_Q186R_YF]	2.78
DSIRDYEDGTE [CLNS1A_Y214_M218T]	0.829
CERFSYYGMKA [SLC15A2_Y60]	0.843
MGCVNYGAYIN [GLB1_Y485_R482C]	1.44
FPPDGYSRHCE [CTNND1_Y213_Y217C_YF]	0.985
AIIEEYLHLSD [EIF4G1_Y1253_N1257S]	0.749
EQSNPYMVLDI [ROCK2_Y1197]	0.923
QCQLKYSETPF [SIX6OS1_Y129_Y125C]	0.876
RTLIRYANLSN [BEST1_Y131_G135S]	6.11
NPQKSCFIRLY [WAS_Y83_Y83C]	0.783
LERYIYNREEL [HLA-DPB1_Y59_F64L]	0.914
RIDPDYMGRVR [IGSF9_Y81_V82M]	1.03
SRIWVYNHYRC [BRCA2_Y2621_W2626C]	0.938
FSVDGYDSSVR [KCNQ1_Y461]	0.948
